What was measured:
HeLa Kyoto [1] = test: solubility in G1/S (NP-40 vs SDS abundance) (log2 ratio); higher = more soluble; details: cell cycle stage: G1/S
HeLa Kyoto [2] = test: solubility change mitosis vs G1/S (difference of NP-40 vs SDS log2 ratios) (log2 ratio difference); higher = more soluble in mitosis
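Throughout, for solubility change mitosis vs G1/S (difference of NP-40 vs SDS log2 ratios): synchronized HeLa Kyoto cells (double thymidine block for G1/S, nocodazole release for mitosis), protein amounts in NP-40 versus SDS lysates quantified by mass spectrometry, three biological replicates.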
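Throughout, for solubility in G1/S (NP-40 vs SDS abundance): HeLa Kyoto cells arrested at G1/S by double thymidine block, proteins quantified by TMT10plex mass spectrometry in mild NP-40 versus SDS extracts, three biological replicates.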

Chain of JAG2 (chain, as listed by the source): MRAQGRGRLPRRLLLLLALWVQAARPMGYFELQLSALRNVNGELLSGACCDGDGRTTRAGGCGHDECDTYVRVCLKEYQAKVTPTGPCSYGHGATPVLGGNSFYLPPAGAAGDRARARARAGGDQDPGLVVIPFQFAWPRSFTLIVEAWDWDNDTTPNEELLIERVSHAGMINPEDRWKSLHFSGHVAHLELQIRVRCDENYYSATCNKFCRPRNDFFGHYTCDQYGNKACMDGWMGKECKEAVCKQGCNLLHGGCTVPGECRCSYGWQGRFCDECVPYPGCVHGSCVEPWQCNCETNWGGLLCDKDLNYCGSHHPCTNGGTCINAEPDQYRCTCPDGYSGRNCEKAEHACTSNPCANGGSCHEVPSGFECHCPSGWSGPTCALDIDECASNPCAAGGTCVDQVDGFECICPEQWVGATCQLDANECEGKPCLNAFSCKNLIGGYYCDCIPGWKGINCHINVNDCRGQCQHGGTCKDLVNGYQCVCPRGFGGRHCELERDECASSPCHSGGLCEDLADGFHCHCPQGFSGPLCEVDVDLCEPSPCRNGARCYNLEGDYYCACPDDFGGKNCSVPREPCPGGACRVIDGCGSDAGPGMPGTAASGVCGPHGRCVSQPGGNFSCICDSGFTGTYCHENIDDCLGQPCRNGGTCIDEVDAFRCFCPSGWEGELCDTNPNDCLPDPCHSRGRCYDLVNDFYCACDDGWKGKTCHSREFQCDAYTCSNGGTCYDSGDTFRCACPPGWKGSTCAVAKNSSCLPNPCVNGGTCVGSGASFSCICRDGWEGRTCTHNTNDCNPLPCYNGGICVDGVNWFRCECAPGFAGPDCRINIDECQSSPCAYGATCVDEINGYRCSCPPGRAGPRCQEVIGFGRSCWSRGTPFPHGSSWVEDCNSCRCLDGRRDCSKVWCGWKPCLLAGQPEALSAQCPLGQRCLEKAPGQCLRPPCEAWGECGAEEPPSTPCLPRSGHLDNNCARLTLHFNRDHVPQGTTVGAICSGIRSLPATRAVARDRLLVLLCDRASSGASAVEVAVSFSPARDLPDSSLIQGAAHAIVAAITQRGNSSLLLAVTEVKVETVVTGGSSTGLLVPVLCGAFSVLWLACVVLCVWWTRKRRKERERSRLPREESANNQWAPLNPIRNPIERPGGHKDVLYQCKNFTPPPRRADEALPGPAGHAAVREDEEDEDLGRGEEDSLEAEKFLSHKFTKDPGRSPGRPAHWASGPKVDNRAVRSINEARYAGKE
Chain of COL4A1 (chain, as listed by the source): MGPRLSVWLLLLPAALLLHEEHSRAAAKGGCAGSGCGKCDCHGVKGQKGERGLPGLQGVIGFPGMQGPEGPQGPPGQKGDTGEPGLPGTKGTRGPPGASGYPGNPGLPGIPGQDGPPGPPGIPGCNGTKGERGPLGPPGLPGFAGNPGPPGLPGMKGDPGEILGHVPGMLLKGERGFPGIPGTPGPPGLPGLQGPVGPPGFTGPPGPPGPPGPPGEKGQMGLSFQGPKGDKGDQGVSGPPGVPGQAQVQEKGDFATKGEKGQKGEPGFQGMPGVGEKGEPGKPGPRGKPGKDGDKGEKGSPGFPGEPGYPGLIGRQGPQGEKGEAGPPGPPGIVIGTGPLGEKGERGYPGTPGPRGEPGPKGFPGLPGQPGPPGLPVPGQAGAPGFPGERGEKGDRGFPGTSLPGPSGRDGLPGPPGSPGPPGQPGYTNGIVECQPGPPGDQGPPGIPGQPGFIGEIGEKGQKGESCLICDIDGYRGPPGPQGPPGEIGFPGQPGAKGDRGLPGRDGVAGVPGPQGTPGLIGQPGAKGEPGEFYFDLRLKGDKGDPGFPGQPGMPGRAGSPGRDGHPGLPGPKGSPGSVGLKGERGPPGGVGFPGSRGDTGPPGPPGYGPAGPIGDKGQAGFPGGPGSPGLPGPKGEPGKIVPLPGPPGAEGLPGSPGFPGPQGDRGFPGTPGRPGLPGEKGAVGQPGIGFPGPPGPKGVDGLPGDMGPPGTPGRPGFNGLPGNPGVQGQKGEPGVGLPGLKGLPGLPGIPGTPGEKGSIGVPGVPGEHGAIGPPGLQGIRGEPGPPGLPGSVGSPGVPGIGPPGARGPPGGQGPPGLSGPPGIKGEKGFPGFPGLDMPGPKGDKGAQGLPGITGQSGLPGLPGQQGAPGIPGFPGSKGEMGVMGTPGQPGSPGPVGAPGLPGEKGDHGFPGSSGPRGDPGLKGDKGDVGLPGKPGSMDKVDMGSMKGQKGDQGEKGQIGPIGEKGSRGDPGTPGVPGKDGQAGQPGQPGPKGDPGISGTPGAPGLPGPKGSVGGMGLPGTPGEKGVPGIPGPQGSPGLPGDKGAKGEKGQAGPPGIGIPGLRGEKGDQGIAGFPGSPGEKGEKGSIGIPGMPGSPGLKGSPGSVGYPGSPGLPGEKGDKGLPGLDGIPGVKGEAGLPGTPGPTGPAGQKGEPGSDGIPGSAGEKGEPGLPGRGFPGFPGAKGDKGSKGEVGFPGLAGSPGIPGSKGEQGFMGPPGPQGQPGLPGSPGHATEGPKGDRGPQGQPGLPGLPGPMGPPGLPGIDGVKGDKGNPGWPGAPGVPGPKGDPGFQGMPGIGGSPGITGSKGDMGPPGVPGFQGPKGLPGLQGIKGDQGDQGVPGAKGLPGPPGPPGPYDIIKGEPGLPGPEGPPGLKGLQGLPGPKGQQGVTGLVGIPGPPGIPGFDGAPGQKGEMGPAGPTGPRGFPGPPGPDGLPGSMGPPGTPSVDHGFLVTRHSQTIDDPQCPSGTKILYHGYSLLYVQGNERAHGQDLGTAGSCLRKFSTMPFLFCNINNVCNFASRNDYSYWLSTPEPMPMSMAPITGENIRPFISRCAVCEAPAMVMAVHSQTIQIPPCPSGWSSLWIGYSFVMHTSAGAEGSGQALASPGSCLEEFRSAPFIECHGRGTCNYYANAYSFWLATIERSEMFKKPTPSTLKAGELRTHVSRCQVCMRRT

Row | Substance | solubility in G1/S (log2) (HeLa Kyoto [1]) | solubility change mitosis (log2) (HeLa Kyoto [2])
1 | TET2 | 0.155 | -0.257
2 | MAGTALKRLMAEYKQLTLNPPEGIVAGPMNEENFFEWEALIMGPEDTCFEFGVFPAILSFPLDYPLSPPKMRFTCEMFHPNIYPDGRVCISILHAPGDDPMGYESSAERWSPVQSVEKILLSVVSMLAEPNDESGANVDASKMWRDDREQFYKIAKQIVQKSLGL [UBE2G2] | 0.6 | 0.17
3 | MASKRKSTTPCMIPVKTVVLQDASMEAQPAETLPEGPQQDLPPEASAASSEAAQNPSSTDGSTLANGHRSTLDGYLYSCKYCDFRSHDMTQFVGHMNSEHTDFNKDPTFVCSGCSFLAKTPEGLSLHNATCHSGEASFVWNVAKPDNHVVVEQSIPESTSTPDLAGEPSAEGADGQAEIIITKTPIMKIMKGKAEAKKIHTLKENVPSQPVGEALPKLSTGEMEVREGDHSFINGAVPVSQASASSAKNPHAANGPLIGTVPVLPAGIAQFLSLQQQPPVHAQHHVHQPLPTAKALPKVMIPLSSIPTYNAAMDSNSFLKNSFHKFPYPTKAELCYLTVVTKYPEEQLKIWFTAQRLKQGISWSPEEIEDARKKMFNTVIQSVPQPTITVLNTPLVASAGNVQHLIQAALPGHVVGQPEGTGGGLLVTQPLMANGLQATSSPLPLTVTSVPKQPGVAPINTVCSNTTSAVKVVNAAQSLLTACPSITSQAFLDASIYKNKKSHEQLSALKGSFCRNQFPGQSEVEHLTKVTGLSTREVRKWFSDRRYHCRNLKGSRAMIPGDHSSIIIDSVPEVSFSPSSKVPEVTCIPTTATLATHPSAKRQSWHQTPDFTPTKYKERAPEQLRALESSFAQNPLPLDEELDRLRSETKMTRREIDSWFSERRKKVNAEETKKAEENASQEEEEAAEDEGGEEDLASELRVSGENGSLEMPSSHILAERKVSPIKINLKNLRVTEANGRNEIPGLGACDPEDDESNKLAEQLPGKVSCKKTAQQRHLLRQLFVQTQWPSNQDYDSIMAQTGLPRPEVVRWFGDSRYALKNGQLKWYEDYKRGNFPPGLLVIAPGNRELLQDYYMTHKMLYEEDLQNLCDKTQMSSQQVKQWFAEKMGEETRAVADTGSEDQGPGTGELTAVHKGMGDTYSEVSENSESWEPRVPEASSEPFDTSSPQAGRQLETD [ZHX3] | 0.105 | -0.0607
4 | MAEPVQEELSVLAAIFCRPHEWEVLSRSETDGTVFRIHTKAEGFMDVDIPLELVFHLPVNYPSCLPGISINSEQLTRAQCVTVKENLLEQAESLLSEPMVHELVLWIQQNLRHILSQPETGSGSEKCTFSTSTTMDDGLWITLLHLDHMRAKTKYVKIVEKWASDLRLTGRLMFMGKIILILLQGDRNNLKEYLILQKTSKVDVDSSGKKCKEKMISVLFETKVQTEHKRFLAFEVKEYSALDELQKEFETAGLKKLFSEFVLALVK [RWDD3] | 0.101 | -0.0953
5 | MALVTVSRSPPGSGASTPVGPWDQAVQRRSRLQRRQSFAVLRGAVLGLQDGGDNDDAAEASSEPTEKAPSEEELHGDQTDFGQGSQSPQKQEEQRQHLHLMVQLLRPQDDIRLAAQLEAPRPPRLRYLLVVSTREGEGLSQDETVLLGVDFPDSSSPSCTLGLVLPLWSDTQVYLDGDGGFSVTSGGQSRIFKPISIQTMWATLQVLHQACEAALGSGLVPGGSALTWASHYQERLNSEQSCLNEWTAMADLESLRPPSAEPGGSSEQEQMEQAIRAELWKVLDVSDLESVTSKEIRQALELRLGLPLQQYRDFIDNQMLLLVAQRDRASRIFPHLYLGSEWNAANLEELQRNRVTHILNMAREIDNFYPERFTYHNVRLWDEESAQLLPHWKETHRFIEAARAQGTHVLVHCKMGVSRSAATVLAYAMKQYECSLEQALRHVQELRPIARPNPGFLRQLQIYQGILTASRQSHVWEQKVGGVSPEEHPAPEVSTPFPPLPPEPEGGGEEKVVGMEESQAAPKEEPGPRPRINLRGVMRSISLLEPSLELESTSETSDMPEVFSSHESSHEEPLQPFPQLARTKGGQQVDRGPQPALKSRQSVVTLQGSAVVANRTQAFQEQEQGQGQGQGEPCISSTPRFRKVVRQASVHDSGEEGEA [SSH3] | 0.212 | -0.161
6 | HECTD4 | -0.212 | 0.00851
7 | JAG2 | -0.54 | 0.351
8 | MTQDRPLLAVQEALKKCFPVVEEQQGLWQSALRDCQPLLSSLSNLAEQLQAAQNLRFEDVPALRAFPDLKERLRRKQLVAGDIVLDKLGERLAILLKVRDMVSSHVERVFQIYEQHADTVGIDAVLQPSAVSPSVADMLEWLQDIERHYRKSYLKRKYLLSSIQWGDLANIQALPKAWDRISKDEHQDLVQDILLNVSFFLEE [C1ORF109] | 0.0701 | 0.16
9 | MSGSDGGLEEEPELSITLTLRMLMHGKEVGSIIGKKGETVKRIREQSSARITISEGSCPERITTITGSTAAVFHAVSMIAFKLDEDLCAAPANGGNVSRPPVTLRLVIPASQCGSLIGKAGTKIKEIRETTGAQVQVAGDLLPNSTERAVTVSGVPDAIILCVRQICAVILESPPKGATIPYHPSLSLGTVLLSANQGFSVQGQYGAVTPAEVTKLQQLSSHAVPFATPSVVPGLDPGTQTSSQEFLVPNDLIGCVIGRQGSKISEIRQMSGAHIKIGNQAEGAGERHVTITGSPVSIALAQYLITACLETAKSTSGGTPSSAPADLPAPFSPPLTALPTAPPGLLGTPYAISLSNFIGLKPMPFLALPPASPGPPPGLAAYTAKMAAANGSKKAERQKFSPY [PCBP4] | 0.0231 | 0.0329
10 | MNVTSIALRAETWLLAAWHVKVPPMWLEACINWIQEENNNVNLSQAQMNKQVFEQWLLTDLRDLEHPLLPDGILEIPKGELNGFYALQINSLVDVSQPAYSQIQKLRGKNTTNDLVTAEAQVTPKPWEAKPSRMLMLQLTDGIVQIQGMEYQPIPILHSDLPPGTKILIYGNISFRLGVLLLKPENVKVLGGEVDALLEEYAQEKVLARLIGEPDLVVSVIPNNSNENIPRVTDVLDPALGPSDEELLASLDENDELTANNDTSSERCFTTGSSSNTIPTRQSSFEPEFVISPRPKEEPSNLSIHVMDGELDDFSLEEALLLEETVQKEQMETKELQPLTFNRNADRSIERFSHNPNTTNNFSLTCKNGNNNWSEKNVSEQMTNEDKSFGCPSVRDQNRSIFSVHCNVPLAHDFTNKEKNLETDNKIKQTSSSDSHSLNNKILNREVVNYVQKRNSQISNENDCNLQSCSLRSSENSINLSIAMDLYSPPFVYLSVLMASKPKEVTTVKVKAFIVTLTGNLSSSGGIWSITAKVSDGTAYLDVDFVDEILTSLIGFSVPEMKQSKKDPLQYQKFLEGLQKCQRDLIDLCCLMTISFNPSLSKAMVLALQDVNMEHLENLKKRLNK [RMI1] | -0.0709 | 0.0277
11 | RLF | -0.887 | 0.617
12 | COL4A1 | -0.0938 | 0.225
13 | MFQASMRSPNMEPFKQQKVEDFYDIGEELGSGQFAIVKKCREKSTGLEYAAKFIKKRQSRASRRGVSREEIEREVSILRQVLHHNVITLHDVYENRTDVVLILELVSGGELFDFLAQKESLSEEEATSFIKQILDGVNYLHTKKIAHFDLKPENIMLLDKNIPIPHIKLIDFGLAHEIEDGVEFKNIFGTPEFVAPEIVNYEPLGLEADMWSIGVITYILLSGASPFLGDTKQETLANITAVSYDFDEEFFSQTSELAKDFIRKLLVKETRKRLTIQEALRHPWITPVDNQQAMVRRESVVNLENFRKQYVRRRWKLSFSIVSLCNHLTRSLMKKVHLRPDEDLRNCESDTEEDIARRKALHPRRRSSTS [DAPK2] | 0.203 | -0.115
14 | MKFVYKEEHPFEKRRSEGEKIRKKYPDRVPVIVEKAPKARIGDLDKKKYLVPSDLTVGQFYFLIRKRIHLRAEDALFFFVNNVIPPTSATMGQLYQEHHEEDFFLYIAYSDESVYGL [GABARAP] | 0.16 | -0.0822
